This passage reports Kd results from paper PMC9873692 (2023).

The chains are these.
B1: P2 domain of the histidine kinase CheA (domain or fragment)
chain: GFKTFYIKVILKEGTQLKSARIYLVFHKLEELKCEVVRTIPSVEEIEEEKFENEVELFVISPVDLEKLSEALSSIADIERVIIKEV
modifications: biotin (in vivo biotinylation, AviTag)

Targets include Cheytin 1; Cheytin 4; Cheytin 2; Cheytin 3.
Holding throughout (test): ITC
(Isothermal titration calorimetry measures the heat released or taken up as one component is titrated into another.)

The target in test [1] is B1.

With B1, the Kd with Cheytin 1 came out at 220 nM; in the test with Cheytin 4 it was 490 nM; with Cheytin 2, 110 nM; with Cheytin 3, 660 nM.

B2: CheY protein from Thermotoga maritima (natural protein)
chain: MGKRVLIVDDAAFMRMMLKDIITKAGYEVAGEATNGREAVEKYKELKPDIVTMDITMPEMNGIDAIKEIMKIDPNAKIIVCSAMGQQAMVIEAIKAGAKDFIVKPFQPSRVVEALNKVSK
B2: binding in test [1] was characterised by a dissociation constant (Kd) of 150 nM.

One may read the Kd as the concentration at which binding is half-saturated. Read a high Kd as weaker binding.
